Measurements published in article PMC8514162.
Read-outs that look alike come from different tables or passages of the source.

Experiments:
Assay in all cases: native MS
[1] = biological target: haptoglobin Hp 1-1, tetramer H-L-L-H (human) (UniProt P00738)
[2] = biological target: haptoglobin Hp 2-1 isoform HL(L*H)LH (human) (UniProt P00738)
[3] = biological target: haptoglobin Hp 1-1, tetramer H-L-L-H (human) (UniProt P00738); remark: listed apart in the source
[4] = biological target: haptoglobin Hp 2-1 isoform HL(L*H)2LH (human) (UniProt P00738)
[5] = biological target: haptoglobin Hp 2-1 isoform HL(L*H)LH (human) (UniProt P00738); remark: listed apart in the source

With “semi-hemoglobin dimer α*β* of hemoglobin (Hb) (from UniProt P69905 1-142; P68871 1-147) (complex)” the stoichiometry N (α*β* dimers per HLLH) [1] was 2, the stoichiometry N (semi-Hb dimers per HL(L*H)LH) [2] was 3 and the stoichiometry N (Hb dimers per Hp molecule) [3] was 2. It also gave a stoichiometry N (semi-Hb dimers per HLLH) [3] of 2, a stoichiometry N (α*β* dimers per HLLH) [3] of 2 and a stoichiometry N (dimeric Hb subunits per HL(L*H)2LH) [4] of 4. The stoichiometry N (semi-Hb dimers per HL(L*H)LH) [5] was 3.
